Test results: patent publication US20250026844A1 (SHANDONG SIMCERE BIOPHARMACEUTICAL, published 2025)
Values joined by “and” are separate entries in the source; they are usually repeats but may differ in a detail not shown here. Equal entries are not always repeated. Where two headings read alike, the source gives them in different places.

Assays:
human BCMA-His protein [1] = biological target: T1, human BCMA-His protein (human, UniProt Q02223 1-54); test: SPR (Biacore), antibody captured on Protein A chip, BCMA-His in solution
T1 construct: Bought protein; also called human BCMA protein; huBCMA-His; not shown: His tag
T1 sequence (looked up): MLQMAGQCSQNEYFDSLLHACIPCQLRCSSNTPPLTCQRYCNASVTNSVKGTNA
Protocol: (§1) The flow cell was set to 25° C. The sample block was set to 16° C. Both were pretreated with the running buffer. In each cycle, an antibody to be detected was first captured with a Protein A chip, and then a single concentration of BCMA antigen protein was injected. The binding and dissociation processes of the antibody and the antigen protein were recorded, and finally Glycine pH 1.5 (GE Healthcare; BR-1003-54) was used to complete chip regeneration. Binding was measured by injecting different concentrations of BCMA-His in solution for 240 s with a flow rate of 30 μL/min. The concentration started from 200 nM (see the detailed results for the actual concentration in the test) and was diluted at 1:1, making a total of 5 concentrations. The dissociation phase was monitored for up to 600 s and was triggered by switching from sample solution to running buffer. The surface was regenerated by washing with a 10 mM glycine solution (pH 1.5) for 30 s at a flow rate of 30 μL/min. Bulk refractive index difference was corrected by subtracting the response obtained from the goat anti-human Fc surface. Blank injection was also subtracted (=double reference). For calculation of apparent KD and other kinetic parameters, Langmuir 1:1 model was used. The binding rate (Kₐ), dissociation rate (Kdis) and binding affinity (KD) of the recombinant candidate antibody to human BCMA protein are shown in the table, wherein REGN5459-hlgG1 antibody was used as a control.
According to the method in Example 5, Biacore was used to detect the affinity of the recombinant antibodies to human BCMA protein.

human BCMA on cells [2] = biological target: T2, human BCMA on cells (human, UniProt Q02223 1-184); test: FACS, U266 cells
T2 construct: whole, on cells; also called H929 cells; U266 cells
T2 sequence (looked up): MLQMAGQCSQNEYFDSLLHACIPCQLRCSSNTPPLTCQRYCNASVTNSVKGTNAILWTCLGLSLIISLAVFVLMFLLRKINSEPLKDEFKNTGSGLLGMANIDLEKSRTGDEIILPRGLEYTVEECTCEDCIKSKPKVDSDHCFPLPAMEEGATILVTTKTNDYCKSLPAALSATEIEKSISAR
Protocol: (§2) H929 cells and U266 cells were scale-up cultured in T-75 cell culture flasks to the logarithmic growth phase, and the cells were pipetted into a single cell suspension. After the cells were counted, the cells were centrifuged and the cell pellet was resuspended in FACS buffer (PBS+2% fetal calf serum) to 2×10⁶ cells per ml, and the suspension was added to the 96-well FACS reaction plate at 50 μl per well, REGN5459-hlgG1 and HPN217-hHcAb antibodies were used as primary antibodies, and APC-labeled goat anti-human IgG (H+L) secondary antibodies (purchased from Jackson, catalog number: 109-605-088) were detected and analyzed by FACS (FACS Canto™, purchased from BD Corporation). The results are shown in Table 4 and FIGS. 2A and 2B, and indicate that both H929 cells and U266 cells can bind to REGN5459-hlgG1 and HPN217-hHcAb antibodies.

human BCMA on cells [3] = biological target: T2, human BCMA on cells; test: FACS, H929 cells
Protocol: (§3) The desired cells were scale-up cultured in T-75 cell culture flasks to the logarithmic growth phase, and the cells were pipetted into a single cell suspension. After the cells were counted, the cells were centrifuged and the cell pellet was resuspended in FACS buffer (PBS+2% fetal calf serum) to 2×10⁶ cells per ml, and the suspension was added to the 96-well FACS reaction plate at 50 μl per well, then the sample to be tested of the candidate antibody was added at 50 μl per well and the mixture was incubated at 4° C. for 1 h. The obtained mixture was centrifuged and washed 3 times with a PBS buffer. Secondary antibody anti-hlgG(Fc) Alexa 647 (purchased from Jackson, catalog number: 109-605-098) was added at 50 μl/well, and incubated on ice for 1 h. The obtained mixture was centrifuged and washed 3 times with a PBS buffer. 100 μl of the mixture was taken for detection and result analysis by FACS (FACS Canto™, purchased from BD Company). Data analysis was performed by software (FlowJo) to obtain the mean fluorescence intensity (MFI) of the cells. Then, a software (GraphPad Prism8) was used for analysis, data fitting and EC50 calculation. BCMA-Lab05, BCMA-Lab06, and BCMA-Lab08 had poor binding to H929 and U266 cells, while the other antibodies performed better.
(§4) The specific method was the same as in Example 4(B).

human BCMA on cells [4] = biological target: T2, human BCMA on cells; test: FACS, U266 cells; remark: listed apart in the source
Protocol: as §3

human BCMA-His protein [5] = biological target: T1, human BCMA-His protein; test: ELISA, plate coated with human BCMA-His 1 ug/mL, antibody titrated from 100 nM, HRP secondary antibody, OD450
Protocol: (§5) The specific method was as follows: Human BCMA protein (purchased from Acro, catalog number: BCA-H522y) and monkey BCMA protein (purchased from Acro, catalog number: BCA-C52H7) were diluted with PBS to a final concentration of 1 μg/mL, respectively, and then added to a 96-well ELISA plate at 50 al/well. The plate was sealed with a plastic film and incubated overnight at 4° C., the plate was washed twice with PBS the next day, and then a blocking solution [PBS+2% (w/v) BSA] was added for blocking at room temperature for 2 h. The blocking solution was discarded, the plate was washed 3 times with PBS, and 100 nM BCMA recombinant chimeric nanobody diluted gradiently or negative control antibody was added at 50 μl/well. After incubation at 37° C. for 2 h, the plate was washed 3 times with PBS. HRP (horseradish peroxidase)-labeled secondary antibody (purchased from Merck, catalog number: AP113P) was added, and incubated at 37° C. for 1 h, and the plate was washed 5 times with PBS. TMB substrate was added at 50 μl/well, and incubated at room temperature for 10 min, then a stop solution (1.0 M HCl) was added at 50 μl/well. The OD450 nm values were read by an ELISA microplate reader (Multimode Plate Reader, EnSight, purchased from Perkin Elmer). All antibodies bound to human BCMA protein. BCMA-Lab06 and BCMA-Lab07 had no cross-binding activity with monkey BCMA protein. […]

human BCMA on cells [6] = biological target: T2, human BCMA on cells; test: FACS, H929 cells; remark: listed apart in the source
Protocol: as §2

human BCMA-His protein [7] = biological target: T1, human BCMA-His protein; test: SPR (Biacore), antibody captured on Protein A chip, BCMA-His in solution; remark: listed apart in the source
Protocol: as §1

human BCMA-His protein [8] = biological target: T1, human BCMA-His protein; test: ligand competition ELISA: plate coated with human BCMA protein 1 ug/mL, antibody titrated, blocked ligand hAPRIL-biotin 0.5 ug/mL, OD450
monkey BCMA-His protein [9] = biological target: T3, monkey BCMA-His protein (monkey, UniProt A0A2K5UD97 1-53); test: ELISA, plate coated with monkey BCMA-His 1 ug/mL, antibody titrated from 100 nM, HRP secondary antibody, OD450
T3 construct: Bought protein; also called monkey BCMA protein; CynoBCMA-his
Protocol: as §5

human BCMA on cells [10] = biological target: T2, human BCMA on cells; test: FACS, H929 cells; remark: listed apart in the source
Protocol: as §3

monkey BCMA-His protein [11] = biological target: T3, monkey BCMA-His protein; test: ELISA, plate coated with monkey BCMA-His 1 ug/mL, antibody titrated from 100 nM, HRP secondary antibody, OD450; remark: listed apart in the source
Protocol: The binding activity of the control antibody to human BCMA-His protein (purchased from Acro, catalog number: BCA-H522y) and monkey BCMA-His protein (purchased from Acro, catalog number: BCA-C52H7) was detected by ELISA. The specific method was as follows: The antigen protein was diluted with PBS to a final concentration of 1 μg/mL, and then added to a 96-well ELISA plate at 50 μl per well. The plate was sealed with a plastic film and incubated overnight at 4° C., the plate was washed twice with PBS the next day, and then a blocking solution [PBS+2% (w/v) BSA] was added for blocking at room temperature for 2 h. The blocking solution was poured off and 50 μl of 100 nM serially diluted control antibody or negative control antibody was added to each well. After incubation at 37° C. for 2 h, the plate was washed 3 times with PBS. HRP (horseradish peroxidase)-labeled secondary antibody (purchased from Merck, catalog number: AP113P) was added, and incubated at 37° C. for 1 h, and the plate was washed 5 times with PBS. TMB substrate was added at 50 μl/well, and incubated at room temperature for 10 min, then a stop solution (1.0 M HCl) was added at 50 al/well. The OD450 nm values were read by an ELISA microplate reader (Multimode Plate Reader, EnSight, purchased from Perkin Elmer). The results are shown in Tables 2 and 3 and FIGS. 1A and 1B. […]

human BCMA-His protein [12] = biological target: T1, human BCMA-His protein; test: ligand competition ELISA: plate coated with human BCMA protein 1 ug/mL, antibody titrated, blocked ligand hAPRIL-biotin 0.5 ug/mL, OD450; remark: listed apart in the source
Protocol: The antigen protein was diluted with PBS to a final concentration of 1 μg/mL, and then added to a 96-well ELISA plate at 50 μl per well. The plate was sealed with a plastic film and incubated overnight at 4° C., the plate was washed twice with PBS the next day, and then a blocking solution [PBS+2% (w/v) BSA] was added for blocking at room temperature for 2 h. The blocking solution was discarded, the plate was washed 3 times with PBS, and 200 nM BCMA recombinant chimeric nanobody diluted gradiently or negative control antibody was added at 50 μl/well. hAPRIL-biotin (purchased from Acro, catalog number: APL-H82F5) was diluted to 0.5 μg/mL, with 50 μl per well. After incubation at 37° C. for 1.5 h, the plate was washed 3 times with PBS. HRP (horseradish peroxidase)-labeled secondary antibody (purchased from Sigma, catalog number: S2438-250 μg) was added, and incubated at 37° C. for 1 h, and the plate was washed 5 times with PBS. TMB substrate was added at 50 μl/well, and incubated at room temperature for 10 min, then a stop solution (1.0 M HCl) was added at 50 al/well. The OD450 nm values were read by an ELISA microplate reader (Multimode Plate Reader, EnSight, purchased from Perkin Elmer). BCMA-Lab05, BCMA-Lab06 and BCMA-Lab08 had average blocking effects, while the other antibodies had good blocking effects.

human BCMA-His protein [13] = biological target: T1, human BCMA-His protein; test: SPR (Biacore), antibody captured on Protein A chip, BCMA-His in solution; remark: listed apart in the source
Protocol: as §1
The specific operating method referred to Example 5. The binding rate (Ka), dissociation rate (Kdis) and binding affinity (KD) of the humanized candidate nanobodies to human BCMA protein are shown Table 18, wherein REGN5459-hlgG1 antibody was used as a control.

human BCMA on cells [14] = biological target: T2, human BCMA on cells; test: FACS, U266 cells; remark: listed apart in the source
Protocol: as §3, §4

T3 sequence (A0A2K5UD97 entry or part of it limits assumed): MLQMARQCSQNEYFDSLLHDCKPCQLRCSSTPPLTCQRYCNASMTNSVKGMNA

B1: REGN5459-hIgG1 (antibody, V domains shown)
VH: EVQLVESGGGLVQPGGSLRLSCAASGFTFSNFWMTWVRQAPGKGLEWVANMNQDGSEKYYVDSVKGRFTISRDNAKSSLYLQMNSLRAEDTAVYYCARDREYCISTSCYDDFDYWGQGTLVTVSS
VL: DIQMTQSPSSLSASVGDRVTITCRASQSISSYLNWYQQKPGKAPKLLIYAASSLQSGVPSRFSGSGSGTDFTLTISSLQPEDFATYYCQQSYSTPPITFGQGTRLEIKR
notes: Control antibody; also called REGN5459-hlgG1; BCMA antibody
B1 showed a Kd (human BCMA-His protein [1]) of 0.267 nM, a koff (human BCMA-His protein [1]) of 0.000197 s⁻¹ and a kon (human BCMA-His protein [1]) of 739000 M⁻¹ s⁻¹. The EC50 (human BCMA on cells [2]) was 9.12 nM, the EC50 (human BCMA on cells [3]) was 9.39 nM and 13.2 nM and the EC50 (human BCMA on cells [4]) was 7.14 nM and 16.6 nM and 9.49 nM. For the same binder, the “EC50 (read off the curve)” value (human BCMA-His protein [5]) was about 0.1 nM, the EC50 (human BCMA on cells [6]) was 6.78 nM and the Kd (human BCMA-His protein [7]) was 0.233 nM. The koff (human BCMA-His protein [7]) was 0.000178 s⁻¹, the kon (human BCMA-His protein [7]) was 766000 M⁻¹ s⁻¹ and the “IC50 (read off the curve)” value (human BCMA-His protein [8]) was about 5 nM. The “EC50 (read off the curve)” value (monkey BCMA-His protein [9]) was about 0.1 nM, the EC50 (human BCMA on cells [10]) was 5.24 nM and 9.39 nM and 6.46 nM and the “EC50 (read off the curve)” value (monkey BCMA-His protein [11]) was about 0.1 nM. The “IC50 (read off the curve)” value (human BCMA-His protein [12]) was ~6 nM and ~5 nM, the Kd (human BCMA-His protein [13]) was 0.208 nM and the koff (human BCMA-His protein [13]) was 0.000162 s⁻¹. For the same binder, the kon (human BCMA-His protein [13]) was 781000 M⁻¹ s⁻¹ and the EC50 (human BCMA on cells [14]) was 16.6 nM and 32.2 nM.
